Where “and” joins values, the source holds several entries; their conditions need not be identical. Identical values can stand only once.
Columns and labels:
[1] = molecular target: the molecule itself; assay: SEC; Superdex S200 on an ÄKTA purifier, 0.6 ml/min, 20 mM Tris pH 7.4, 50 mM NaCl; sizes by elution against BioRad gel filtration standard
[2] = molecular target: the molecule itself; assay: cross-linking; purified FLAG-tagged MaviP35 incubated in 5 µM BMH for 30 min at room temperature, boiled in loading dye with 5% β-mercaptoethanol, SDS-PAGE and anti-FLAG immunoblot; oligomer sizes by migration against markers
[3] = molecular target: the molecule itself; assay: AUC; sedimentation velocity of gel filtration fractions (yeast 111–215 kDa, bacterial 89–138 kDa), 20°C, PBS, 40,000 rpm, 230 nm; 0.28 and 0.56 µM bacterial fractions, 1.95, 2.23 and 1.39 µM yeast fractions; c(s) and c(M) fits in SEDFIT
[4] = molecular target: caspase 3 (human) (UniProt P42574); assay: inhibition of caspase activity on a fluorogenic peptide, inhibition constants by a competitive model; graded concentrations of P35 protein, 30 nM caspase 3, 100 µM Ac-DEVD-AFC; constants of the yeast-purified proteins taken from ref. 22
Chain of caspase 3 (human) (P42574 whole entry): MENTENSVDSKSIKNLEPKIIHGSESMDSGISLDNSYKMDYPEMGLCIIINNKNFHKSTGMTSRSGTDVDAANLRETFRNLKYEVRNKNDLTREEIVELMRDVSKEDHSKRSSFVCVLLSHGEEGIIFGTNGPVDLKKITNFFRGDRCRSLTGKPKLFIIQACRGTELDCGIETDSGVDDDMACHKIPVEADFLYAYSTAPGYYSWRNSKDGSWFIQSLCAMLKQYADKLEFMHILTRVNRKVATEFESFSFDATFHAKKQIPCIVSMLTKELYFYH

Binder	stoichiometry N [1]	stoichiometry N [2]	stoichiometry N [3]	fold more efficient in caspase 3 inhibition (inhibition constants, Figure 1B) than bacterially-purified AcP35 [4] [fold]
MaviP35-FLAG purified from Escherichia coli (natural protein, N-acetylated amino terminus on 24% of the protein, MaviP35, the P35 orthologue of Maruca vitrata MNPV; full length protein lacking the initiating methionine (by mass spectrometry); expressed from pET23a-MaviP35-FLAG; Same coding region as m2 (excised from pGALL-(HIS3)-MaviP35-FLAG); the host differs; also called bacterially purified MaviP35; bacterially-produced MaviP35; source: E. coli BL21-(DE3)-pLysS, purified (Anti-FLAG M2-agarose, FLAG …)) CVIFPVEIDVSQTVIKDCQVNKQTRELVYINKIMNIELTKPVLMMFNISGPIKSVTRKNNNLRDEIKSEIDKQFDQLERDHSTQFDGGHCIKYFKDEHYSISCQSGNVLKSKFEKILKSHGYTDEKSIEAYKKYCLPKLVDEQNNYYVAVCVLKPGFEKGSNQVLSFEYNPIGNKVIVPFAHEINDTGLYEYDAAAYVDNVKFDGEQQFEKFVQSLTLPSAYDDEEVLYYNETSENKRMMYKALEFKTKSCWGKFEWDYWKIFCNGFIYDEKLKVLYVKLHNVTSRVNNNIILNID	3	10	–	–
MaviP35-FLAG purified from Saccharomyces cerevisiae (natural protein, N-acetylated amino terminus on 12% of the protein, MaviP35, the P35 orthologue of Maruca vitrata MNPV; full length protein lacking the initiating methionine (by mass spectrometry); expressed from pGALL-(HIS3)-MaviP35-FLAG; also called yeast-purified MaviP35; yeast-isolated MaviP35; source: gel filtration for some experiments; not shown: FLAG, C-terminal, kept) CVIFPVEIDVSQTVIKDCQVNKQTRELVYINKIMNIELTKPVLMMFNISGPIKSVTRKNNNLRDEIKSEIDKQFDQLERDHSTQFDGGHCIKYFKDEHYSISCQSGNVLKSKFEKILKSHGYTDEKSIEAYKKYCLPKLVDEQNNYYVAVCVLKPGFEKGSNQVLSFEYNPIGNKVIVPFAHEINDTGLYEYDAAAYVDNVKFDGEQQFEKFVQSLTLPSAYDDEEVLYYNETSENKRMMYKALEFKTKSCWGKFEWDYWKIFCNGFIYDEKLKVLYVKLHNVTSRVNNNIILNID	2 and 5	–	4 and 6 and 8	–
AcP35-FLAG purified from Saccharomyces cerevisiae (natural protein, N-acetylated amino terminus on 13% of the protein) CVIFPVEIDVSQTIIRDCQVDKQTRELVYINKIMNTQLTKPVLMMFNISGPIRSVTRKNNNLRDRIKSKVDEQFDQLERDYSDQMDGFHDSIKYFKDEHYSVSCQNGSVLKSKFAKILKSHDYTDKKSIEAYEKYCLPKLVDERNDYYVAVCVLKPGFENGSNQVLSFEYNPIGNKVIVPFAHEINDTGLYEYDVVAYVDSVQFDGEQFEEFVQSLILPSSFKNSEKVLYYNEASKNKSMIYKALEFTTESSWGKSEKYNWKIFCNGFIYDKKSKVLYVKLHNVTSALNKNVILNTIK	–	–	–	6

Source: article PMC3375223, “Caspase Inhibitors of the P35 Family Are More Active When Purified from Yeast than Bacteria” (PLoS ONE, 2012)
